Legend:
Assay in all cases: pull-down; prey AAVs mixed with His-tagged bait protein and Ni-NTA resin in DPBS with 20 mM imidazole, 1 h at 4 °C; eluate analysed by Western blot with anti-VP1/VP2/VP3 and anti-6xHis
Conditions in all cases: both partners purified
AAV9-X1.1 capsid = molecular target: T1, AAV9-X1.1 capsid (adeno-associated virus 9, UniProt Q6JC40 1-736, VR IV AA452-458 NGSGQNQ to DGAATKN | VR VIII AA587-590 AQ - - - - - - - AQ to …)
T1 construct: AAV9 capsid protein VP1 with changes in VR-IV and VR-VIII; numbers count on VP1; also called AAV-X1.1; source: HEK293 cells, triple transfected, purified (iodixanol gradient); copies: 60

AAV.CAP-Mac capsid = molecular target: T2, AAV.CAP-Mac capsid (adeno-associated virus 9, UniProt Q6JC40 1-736, VR VIII AA587-590 AQ - - - - - - - AQ to AQLNTTKPIAQ)
T2 construct: AAV9 capsid protein VP1 with an insertion in VR-VIII; numbers count on VP1; source: HEK293 cells, triple transfected, purified (iodixanol gradient); copies: 60

AAV9 capsid = molecular target: T3, AAV9 capsid (adeno-associated virus 9, UniProt Q6JC40 1-736)
T3 construct: AAV9 capsid protein VP1; numbers count on VP1; Assembled capsid with a packaged genome; also called AAV9 (parent of vectors below); source: HEK293 cells, triple transfected, purified (iodixanol gradient); copies: 60

Measured: binding result

B1: human Adeno-Associated Virus Receptor (AAVR) PKD2 domain (AA 401-498) tagged with 6xHis (domain or fragment)
chain: EPRKNRPPIAIVSPQFQEISLPTTSTVIDGSQSTDDDKIVQYHWEELKGPLREEKISEDTAILKLSKLVPGNYTFSLTVVDSDGATNSTTANLTVNKA
notes: human AAVR (KIAA0319L), PKD2 domain, AA 401-498; source: E. coli BL21(DE3)-RIPL, purified (Ni-NTA)
binds: all assays above
